Like-named read-outs stand apart in the source and are kept apart here.
Tests used:
Assay in all cases: thiol-disulfide exchange
[1] = target: (Ibβ-TM)-SS-(Ibα-TM)-SS-(Ibβ-TM) peptide complex (human)
[2] = target: (Ibβ-TM)-SS-(Ibα-TM)-SS-(Ibβ-TM) peptide complex (human); remark: listed apart in the source
[3] = target: (Ibβ-TM)-SS-(Ibα-TM)-SS-(Ibβ-TM) peptide complex (human); remark: listed apart in the source
[4] = target: Ibα-TM (human)
[5] = target: Ibα-TM (human); remark: listed apart in the source
[6] = target: Ibα-TM (human); remark: listed apart in the source

| αβ2 production with IX-TM (% of Ibβ-TM) [1] | αβ2 production with IX-TM (% of Ibβ-TM) [2] | αβ2 production with IX-TM (% of Ibβ-TM) [3] | αβ2 production (% of Ibβ-TM) [4] | αβ2 production (% of Ibβ-TM) [5] | αβ2 production (% of Ibβ-TM) [6] | Binder |
| --- | --- | --- | --- | --- | --- | --- |
| 32.8 % of Ibβ-TM | 29.4 % of Ibβ-TM | 41.2 % of Ibβ-TM | – | – | – | GSVRPGVLWDVALVAVAALGLALLAGLLNATTEALD [IX-TM] |
| – | – | – | 27.7 % of Ibβ-TM | 20.5 % of Ibβ-TM | 13.5 % of Ibβ-TM | Ibβ-TM (peptide) GSGGGLCWGALAAQLALLGLGLLHALLLVLLLSRLRRLRARARARAAARLSLTDPLVAERAGTDES |

Reference: paper PMC2563799
